Data from the supplement of paper PMC10724198.
± gives the standard deviation of the averaged measurements.

What was measured:
Saccharomyces cerevisiae [1] = assay: protein stability index of tFT-peptide fusion (C-terminal peptide) (PSI (0-1 scale)); higher = more stable (slower turnover)
Protocol: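 MPS profiling in S. cerevisiae of the tFT-X12 degron library: putative degron peptides plus stable controls, 12 aa, fused to the C-terminus of a sfGFP-mCherry timer. Cells are FACS-sorted into 8 mCherry/sfGFP bins and deep-sequenced. PSI runs from 0 (unstable) to 1 (stable). Backgrounds are wild type, das1Δ and doa10Δ at 30 °C, and wild type, das1Δ, cdc34-1 and cdc53-1 at 37 °C; 2-3 technical replicates each.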

Saccharomyces cerevisiae [2] = assay: as above; details: genetic background: wild type; temperature: 30 C
[3] = genetic background: cdc34-1, temperature: 37 C
[4] = genetic background: cdc53-1, temperature: 37 C
[5] = genetic background: das1 deletion, temperature: 30 C
[6] = genetic background: das1 deletion, temperature: 37 C
[7] = genetic background: doa10 deletion, temperature: 30 C
[8] = genetic background: wild type, temperature: 30 C
[9] = genetic background: wild type, temperature: 37 C
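Also: PSI is a weighted mean of sequencing reads over stability bins, variants kept only with over 10 reads, mCherry proximal and sfGFP distal, peptide attached via GGGS linker.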

Row | Sequence | protein stability index (Saccharomyces cerevisiae [1]; [3]) | protein stability index (Saccharomyces cerevisiae [1]; [4]) | protein stability index (Saccharomyces cerevisiae [1]; [5]) | protein stability index (Saccharomyces cerevisiae [1]; [6]) | protein stability index (Saccharomyces cerevisiae [1]; [7]) | protein stability index (Saccharomyces cerevisiae [1]; [8]) | protein stability index (Saccharomyces cerevisiae [1]; [9]) | protein stability index (Saccharomyces cerevisiae [2])
1 | FVSVAGFIVVVV | 0.47 ± 0.018 | 0.488 ± 0.036 | 0.293 ± 0.048 | 0.5341 ± 0.0027 | 0.291 ± 0.013 | 0.28 ± 0.034 | 0.498 ± 0.0068 | 0.4076 ± 0.00077
2 | FVVGFVCSMVWG | 0.0975 ± 0.012 | 0.216 ± 0.024 | 0.0889 ± 0.026 | 0.252 ± 0.0045 | 0.0599 ± 0.0055 | 0.0702 ± 0.019 | 0.2266 ± 0.0022 | 0.144 ± 0.016
3 | FVVHPARYYLVL | 0.558 ± 0.077 | 0.682 ± 0.019 | 0.595 ± 0.023 | 0.664 ± 0.017 | 0.355 ± 0.0048 | 0.385 ± 0.02 | 0.489 ± 0.014 | 0.4265 ± 0.0029
4 | FVVSCLSWVFLF | 0.429 ± 0.0099 | 0.528 ± 0.04 | 0.434 ± 0.032 | 0.5418 ± 0.004 | 0.101 ± 0.022 | 0.114 ± 0.025 | 0.127 ± 0.026 | 0.175 ± 0.024
5 | FVVWKDVLVMVR | 0.132 ± 0.03 | 0.1451 ± 0.00045 | 0.2 ± 0.032 | 0.286 ± 0.0095 | 0.158 ± 0.0054 | 0.192 ± 0.034 | 0.257 ± 0.0093 | 0.298 ± 0.029
6 | FWCVFVFFVCVG | 0.255 ± 0.042 | 0.354 ± 0.006 | 0.258 ± 0.028 | 0.399 ± 0.013 | 0.231 ± 0.0025 | 0.238 ± 0.023 | 0.349 ± 0.017 | 0.275 ± 0.01
7 | FWGRAGVWRLKG | 0.684 ± 0.044 | 0.759 ± 0.019 | 0.651 ± 0.021 | 0.7821 ± 0.0066 | 0.228 ± 0.0067 | 0.276 ± 0.026 | 0.595 ± 0.022 | 0.334 ± 0.025
8 | FWSARAVVWWCW | 0.506 ± 0.036 | 0.554 ± 0.026 | 0.445 ± 0.021 | 0.567 ± 0.011 | 0.449 ± 0.012 | 0.449 ± 0.027 | 0.574 ± 0.039 | 0.477 ± 0.051
9 | FYFRSSFFTICF | 0.36 ± 0.038 | 0.3875 ± 0.0025 | 0.365 ± 0.033 | 0.46 ± 0.0018 | 0.4318 ± 0.0037 | 0.352 ± 0.014 | 0.446 ± 0.017 | 0.398 ± 0.024
10 | FYPLPASIPDFA | 0.695 ± 0.025 | 0.7541 ± 0.0025 | 0.67 ± 0.017 | 0.74197 ± 5.2e-05 | 0.675 ± 0.022 | 0.6686 ± 0.0026 | 0.72 ± 0.011 | 0.7216 ± 0.0018
11 | FYSLVQAWSKAP | 0.721 ± 0.037 | 0.715 ± 0.01 | 0.648 ± 0.012 | 0.727 ± 0.021 | 0.3898 ± 0.0019 | 0.415 ± 0.027 | 0.627 ± 0.018 | 0.501 ± 0.018
12 | GCGWVFWVVDWG | 0.463 ± 0.017 | 0.566 ± 0.0098 | 0.402 ± 0.028 | 0.563 ± 0.0075 | 0.369 ± 0.01 | 0.398 ± 0.027 | 0.539 ± 0.026 | 0.4431 ± 0.0038
13 | GCVMSVCSLAVS | 0.605 ± 0.019 | 0.624 ± 0.0098 | 0.45 ± 0.027 | 0.5659 ± 0.0049 | 0.453 ± 0.025 | 0.458 ± 0.011 | 0.54537 ± 2.2e-05 | 0.486 ± 0.013
14 | GCYWPKTLGILC | 0.546 ± 0.018 | 0.555 ± 0.02 | 0.408 ± 0.021 | 0.568 ± 0.0092 | 0.346 ± 0.0062 | 0.378 ± 0.025 | 0.56 ± 0.032 | 0.465 ± 0.004
15 | GGFLLRGLFLFL | 0.613 ± 0.032 | 0.652 ± 0.016 | 0.55 ± 0.024 | 0.6623 ± 0.0034 | 0.542 ± 0.025 | 0.52 ± 0.022 | 0.63 ± 0.015 | 0.525 ± 0.049
16 | GGHGGRRRKGVG | 0.36 ± 0.017 | 0.45 ± 0.0053 | 0.414 ± 0.019 | 0.435 ± 0.0098 | 0.409 ± 0.0082 | 0.381 ± 0.0054 | 0.439 ± 0.013 | 0.41 ± 0.046
17 | GGMVRSCLWCFV | 0.675 ± 0.034 | 0.755 ± 0.014 | 0.6 ± 0.011 | 0.754 ± 0.029 | 0.322 ± 0.011 | 0.357 ± 0.018 | 0.585 ± 0.0078 | 0.432 ± 0.01
18 | GGSHVWKFYRNF | 0.702 ± 0.09 | 0.7673 ± 0.0011 | 0.662 ± 0.031 | 0.767 ± 0.034 | 0.224 ± 0.0086 | 0.285 ± 0.027 | 0.5523 ± 0.0027 | 0.4225 ± 0.0038
19 | GGVFYVFFVFVG | 0.19 ± 0.016 | 0.39 ± 0.016 | 0.246 ± 0.024 | 0.425 ± 0.013 | 0.128 ± 0.0049 | 0.153 ± 0.023 | 0.258 ± 0.013 | 0.195 ± 0.0076
20 | GGVVAACRGGIG | 0.319 ± 0.011 | 0.3862 ± 0.0037 | 0.351 ± 0.017 | 0.394 ± 0.0076 | 0.361 ± 0.022 | 0.348 ± 0.01 | 0.374 ± 0.0091 | 0.346 ± 0.04
21 | GGVWSAFAVWVC | 0.188 ± 0.0039 | 0.338 ± 0.027 | 0.288 ± 0.025 | 0.446 ± 0.0074 | 0.0761 ± 0.0025 | 0.0784 ± 0.013 | 0.0546 ± 0.014 | 0.133 ± 0.0023
22 | GGWGSSLGVWVG | 0.663 ± 0.026 | 0.7542 ± 0.0024 | 0.644 ± 0.018 | 0.7674 ± 0.0045 | 0.178 ± 0.017 | 0.217 ± 0.015 | 0.4022 ± 0.0038 | 0.253 ± 0.011
23 | GIANHAMVIVVL | 0.444 ± 0.011 | 0.469 ± 0.0052 | 0.322 ± 0.037 | 0.508 ± 0.0078 | 0.278 ± 0.0066 | 0.312 ± 0.017 | 0.468 ± 0.033 | 0.404 ± 0.04
24 | GIPVRRLLFLVA | 0.419 ± 0.0098 | 0.478 ± 0.013 | 0.335 ± 0.033 | 0.5019 ± 0.0023 | 0.145 ± 0.0062 | 0.17 ± 0.024 | 0.311 ± 0.021 | 0.292 ± 0.051
25 | GKWVWSSFVWFG | 0.457 ± 0.033 | 0.541 ± 0.011 | 0.509 ± 0.023 | 0.674 ± 0.03 | 0.0899 ± 0.0064 | 0.0965 ± 0.021 | 0.0945 ± 0.0042 | 0.19 ± 0.0062
26 | GLFCCFLCLSVF | 0.241 ± 0.0047 | 0.297 ± 0.018 | 0.241 ± 0.041 | 0.343 ± 0.015 | 0.2 ± 0.004 | 0.204 ± 0.026 | 0.275 ± 0.017 | 0.261 ± 0.015
27 | GLFVGCWVFLVL | 0.344 ± 0.0095 | 0.445 ± 0.0049 | 0.307 ± 0.044 | 0.525 ± 0.012 | 0.294 ± 0.0069 | 0.297 ± 0.037 | 0.486 ± 0.015 | 0.387 ± 0.061
28 | GLIICRRCLWCC | 0.49 ± 0.01 | 0.527 ± 0.029 | 0.36 ± 0.031 | 0.5909 ± 0.00095 | 0.1721 ± 0.00088 | 0.182 ± 0.021 | 0.255 ± 0.01 | 0.267 ± 0.05
29 | GLLSLSGLRWFC | 0.672 ± 0.051 | 0.74727 ± 0.00044 | 0.659 ± 0.021 | 0.763 ± 0.022 | 0.163 ± 0.021 | 0.19 ± 0.035 | 0.462 ± 0.012 | 0.276 ± 0.11
30 | GLSWRLVWVVII | 0.0421 ± 0.0072 | 0.0599 ± 0.011 | 0.132 ± 0.02 | 0.189 ± 0.0048 | 0.0916 ± 0.006 | 0.0531 ± 0.0056 | 0.0493 ± 0.0093 | 0.103 ± 0.011
